Results as given in article PMC8809517, “Cofactor-independent RNA editing by a synthetic S-type PPR protein”.
Changes are numbered by the printed parent chain.

T1: GFP-9S library array, motif 4 ND N98I;D124K (synthetic construct, N98I;D124K)
T1 chain: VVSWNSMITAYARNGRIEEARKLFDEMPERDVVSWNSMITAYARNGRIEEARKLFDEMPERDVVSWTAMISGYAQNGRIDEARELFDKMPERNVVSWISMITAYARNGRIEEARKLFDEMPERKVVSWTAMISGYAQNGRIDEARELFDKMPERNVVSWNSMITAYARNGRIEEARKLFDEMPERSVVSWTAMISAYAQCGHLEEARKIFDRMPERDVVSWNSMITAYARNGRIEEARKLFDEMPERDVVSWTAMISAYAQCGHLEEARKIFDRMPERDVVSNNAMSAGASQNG

T2: GFP-9S library array, motif 4 ND N98Y;D124K (synthetic construct, N98Y;D124K)
T2 chain: T1 chain with I98Y

T3: GFP-9S library array, motif 4 ND N98Y;D124H (synthetic construct, N98Y;D124H)
T3 chain: T1 chain with I98Y, K124H

T4: GFP-9S library array, motif 4 ND N98K;D124K (synthetic construct, N98K;D124K)
T4 chain: T1 chain with I98K

T5: GFP-9S library array, motif 4 ND N98G;D124R (synthetic construct, N98G;D124R)
T5 chain: T1 chain with I98G, K124R


Columns and labels:
Assay in all cases: high-throughput RNA pulldown from lysate on Ni-NTA beads; HRP: 50 mM Tris pH 8, 150 mM NaCl, 1 mM beta-mercaptoethanol, 50 ug/ml BSA, 3 ug/ml yeast RNA, 0.5% heparin; ITC and FP: Tris pH 8, 200 mM KCl, 5% glycerol; MST: 50 mM Tris pH 8, 200 mM NaCl, 1 mM DTT, BSA, heparin, 0.05% Tween 20
Details in all cases: tags: N-terminal His-eGFP
[1] = biological target: T1, GFP-9S library array, motif 4 ND …
[2] = biological target: T2, GFP-9S library array, motif 4 ND …
[3] = biological target: T3, GFP-9S library array, motif 4 ND …
[4] = biological target: T4, GFP-9S library array, motif 4 ND …
[5] = biological target: T5, GFP-9S library array, motif 4 ND …

| Binder | Kd ([1]; label: 5' IRDye 800CW) [nM] | Kd ([2]; label: 5' IRDye 800CW) [nM] | Kd ([3]; label: 5' IRDye 800CW) [nM] | Kd ([4]; label: 5' IRDye 800CW) [nM] | Kd ([5]; label: 5' IRDye 800CW) [nM] | Kd ([1]; label: 5' Cy5) [nM] | Kd ([2]; label: 5' Cy5) [nM] | Kd ([3]; label: 5' Cy5) [nM] | Kd ([4]; label: 5' Cy5) [nM] | Kd ([5]; label: 5' Cy5) [nM] |
| --- | --- | --- | --- | --- | --- | --- | --- | --- | --- | --- |
| AUUAUACGUGA (ssRNA) [IR-rpoA-U] | 183 | 227 | 169 | 83.8 | 116 | – | – | – | – | – |
| AUUAAACGUGA (ssRNA) [IR-rpoA-A] | 197 | 207 | 111 | 254 | 158 | – | – | – | – | – |
| AUUAGACGUGA (ssRNA) [Cy5-rpoA-G] | – | – | – | – | – | 121 | 97 | 46 | 119 | 115 |
| AUUACACGUGA (ssRNA) [Cy5-rpoA] | – | – | – | – | – | 131 | 93.3 | 5.06 | 102 | 100 |
